Test results from article PMC9133142 (Cell chemical biology, 2022).

B1: mAb ZV-2 (antibody, V domains shown)
VH: QVQLQESGAELMKPGASVKLSCKTSGYTFIGYWIEWLKQRPGHGLEWVGEIFPGSGRTKYNEKFKGRATFTADTSSNMAYMQLSSLTTEDSAIYYCARYYYGSYYALDYWGQGTSVTVSS
VL: DIVMTQSPSSLSVSAGEKVTLSCKSSQSLLHSGNQKNYLAWYQQKPGQAPKLLIYGASTRESGVPDRFTGSGSGTDFTLTISSVQAEDLAVYYCQNDHSYPLTFGAGTKLELK
B2: mAb ZV-67 (antibody, V domains shown)
VH: QAQLQQSGTGLARPGASVKLSCKASGYTFTSYGISWVTQRAGQGLEWIGVIYPRSGNTYYNEKFRGKATLTADKSSSSAYMELRGLTAEDSAVYFCARENYGSVYWGQGTTLTVSS
VL: DIVMTQSQKFMSTSVGDRVSITCKASQNVGTAVAWYQQKPGQSPKLLIYSASNRYTGVPDRFTGSGSGTDFTLTISNMQSEDLADYFCQQFSSYPYTFGGGTKLEIK

Experiments:
[1] = molecular target: MBP alone (negative control in BLI) (Escherichia coli K12, UniProt P0AEX9 = MBP); assay: BLI
[2] = molecular target: ZDIII-WT as used in BLI (taken as the His6-MBP-ZDIII-WT fusion protein) (Zika virus H/PF/2013, UniProt A0A024B7W1); assay: BLI
Chain of UniProt A0A024B7W1 (A0A024B7W1 whole entry, looked up, the tested form may be a part): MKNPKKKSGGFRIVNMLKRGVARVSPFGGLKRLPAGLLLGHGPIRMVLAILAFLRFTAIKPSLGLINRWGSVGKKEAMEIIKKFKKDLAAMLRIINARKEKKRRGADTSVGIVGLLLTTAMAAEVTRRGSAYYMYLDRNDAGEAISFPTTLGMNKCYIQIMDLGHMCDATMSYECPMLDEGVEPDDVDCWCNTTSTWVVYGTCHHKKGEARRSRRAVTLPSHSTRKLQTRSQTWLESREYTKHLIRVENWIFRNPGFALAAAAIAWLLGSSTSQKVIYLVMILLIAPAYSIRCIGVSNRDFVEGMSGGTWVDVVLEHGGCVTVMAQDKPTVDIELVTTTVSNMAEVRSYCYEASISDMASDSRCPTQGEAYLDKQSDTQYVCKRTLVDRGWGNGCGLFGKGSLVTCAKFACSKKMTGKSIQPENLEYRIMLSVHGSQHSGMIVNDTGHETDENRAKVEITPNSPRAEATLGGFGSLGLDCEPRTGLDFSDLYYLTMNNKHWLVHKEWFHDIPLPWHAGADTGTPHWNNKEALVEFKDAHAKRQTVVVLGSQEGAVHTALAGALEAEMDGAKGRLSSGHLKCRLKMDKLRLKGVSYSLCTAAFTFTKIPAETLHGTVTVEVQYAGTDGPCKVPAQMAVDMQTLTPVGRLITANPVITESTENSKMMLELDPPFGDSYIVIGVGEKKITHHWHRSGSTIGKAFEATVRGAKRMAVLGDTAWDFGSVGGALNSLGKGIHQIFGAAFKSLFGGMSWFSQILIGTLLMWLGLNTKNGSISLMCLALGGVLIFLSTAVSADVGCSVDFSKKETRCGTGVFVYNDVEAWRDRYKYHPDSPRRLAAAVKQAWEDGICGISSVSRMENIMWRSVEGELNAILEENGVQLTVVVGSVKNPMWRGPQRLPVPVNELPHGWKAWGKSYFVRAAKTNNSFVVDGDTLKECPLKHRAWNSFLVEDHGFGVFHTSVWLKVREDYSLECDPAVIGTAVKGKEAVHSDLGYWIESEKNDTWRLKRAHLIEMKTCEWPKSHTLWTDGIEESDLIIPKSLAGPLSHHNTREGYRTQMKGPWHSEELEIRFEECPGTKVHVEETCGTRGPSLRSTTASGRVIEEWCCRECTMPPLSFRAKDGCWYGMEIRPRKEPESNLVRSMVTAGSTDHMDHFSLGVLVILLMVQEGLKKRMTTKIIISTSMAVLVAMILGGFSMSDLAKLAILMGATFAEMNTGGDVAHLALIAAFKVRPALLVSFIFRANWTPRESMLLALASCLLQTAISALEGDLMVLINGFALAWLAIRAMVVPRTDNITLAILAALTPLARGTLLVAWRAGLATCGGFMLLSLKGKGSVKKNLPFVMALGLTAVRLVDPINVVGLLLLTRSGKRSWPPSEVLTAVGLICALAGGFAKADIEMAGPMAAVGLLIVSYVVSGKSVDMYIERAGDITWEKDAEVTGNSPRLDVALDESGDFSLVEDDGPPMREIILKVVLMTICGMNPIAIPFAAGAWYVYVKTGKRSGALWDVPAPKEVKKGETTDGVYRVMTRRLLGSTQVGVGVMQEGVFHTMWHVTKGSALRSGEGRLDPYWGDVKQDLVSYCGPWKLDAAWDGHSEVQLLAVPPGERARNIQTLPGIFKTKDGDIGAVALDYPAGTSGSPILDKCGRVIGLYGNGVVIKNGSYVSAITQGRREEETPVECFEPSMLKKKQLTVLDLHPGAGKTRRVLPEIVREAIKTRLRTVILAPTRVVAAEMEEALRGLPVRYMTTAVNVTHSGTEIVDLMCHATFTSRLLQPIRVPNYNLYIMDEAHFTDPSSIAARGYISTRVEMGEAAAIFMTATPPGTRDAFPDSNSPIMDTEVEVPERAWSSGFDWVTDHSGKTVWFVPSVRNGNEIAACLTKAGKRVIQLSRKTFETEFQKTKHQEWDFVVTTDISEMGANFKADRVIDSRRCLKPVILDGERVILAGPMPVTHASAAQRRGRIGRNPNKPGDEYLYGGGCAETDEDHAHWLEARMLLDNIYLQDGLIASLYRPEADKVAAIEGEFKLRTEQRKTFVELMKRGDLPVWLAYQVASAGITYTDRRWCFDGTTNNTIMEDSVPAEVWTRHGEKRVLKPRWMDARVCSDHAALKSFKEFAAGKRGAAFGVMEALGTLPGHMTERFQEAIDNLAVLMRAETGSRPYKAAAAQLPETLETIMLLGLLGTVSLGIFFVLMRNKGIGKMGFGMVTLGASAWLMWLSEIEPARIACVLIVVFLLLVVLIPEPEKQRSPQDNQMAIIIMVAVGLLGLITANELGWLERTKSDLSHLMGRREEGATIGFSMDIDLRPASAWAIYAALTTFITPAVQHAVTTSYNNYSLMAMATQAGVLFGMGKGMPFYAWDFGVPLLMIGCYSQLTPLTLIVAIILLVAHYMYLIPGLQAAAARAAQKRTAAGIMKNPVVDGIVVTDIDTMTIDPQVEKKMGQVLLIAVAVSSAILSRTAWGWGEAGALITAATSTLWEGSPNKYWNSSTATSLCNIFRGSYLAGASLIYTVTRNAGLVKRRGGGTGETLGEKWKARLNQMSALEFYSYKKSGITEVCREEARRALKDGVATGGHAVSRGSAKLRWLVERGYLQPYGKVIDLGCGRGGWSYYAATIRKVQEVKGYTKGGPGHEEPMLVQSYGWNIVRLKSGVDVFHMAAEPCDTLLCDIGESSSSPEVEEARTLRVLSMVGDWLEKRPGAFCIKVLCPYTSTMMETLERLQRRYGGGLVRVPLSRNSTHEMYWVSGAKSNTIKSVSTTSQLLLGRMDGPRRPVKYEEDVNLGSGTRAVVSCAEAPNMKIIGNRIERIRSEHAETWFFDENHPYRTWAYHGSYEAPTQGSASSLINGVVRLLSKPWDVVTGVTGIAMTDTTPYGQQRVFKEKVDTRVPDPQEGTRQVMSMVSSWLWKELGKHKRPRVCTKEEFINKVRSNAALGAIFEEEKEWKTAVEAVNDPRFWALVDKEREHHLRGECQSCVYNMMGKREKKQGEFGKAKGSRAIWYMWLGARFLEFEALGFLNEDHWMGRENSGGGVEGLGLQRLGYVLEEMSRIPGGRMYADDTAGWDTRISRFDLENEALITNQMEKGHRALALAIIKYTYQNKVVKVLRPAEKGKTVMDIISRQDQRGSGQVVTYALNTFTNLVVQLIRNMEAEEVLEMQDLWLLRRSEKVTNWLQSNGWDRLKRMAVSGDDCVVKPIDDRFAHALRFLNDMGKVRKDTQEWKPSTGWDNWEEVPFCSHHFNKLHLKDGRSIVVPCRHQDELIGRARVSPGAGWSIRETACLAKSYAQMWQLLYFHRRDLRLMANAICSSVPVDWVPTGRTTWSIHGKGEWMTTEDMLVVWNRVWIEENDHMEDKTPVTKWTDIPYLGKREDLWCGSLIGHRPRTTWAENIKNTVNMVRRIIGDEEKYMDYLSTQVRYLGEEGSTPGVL

[3] = molecular target: ZDIII-WT, soluble purified protein with C-terminal SpyTag (Zika virus H/PF/2013, UniProt A0A024B7W1); assay: ELISA

| Binder | binding result [1] | Kd [2] | EC50 [3] |
| --- | --- | --- | --- |
| B1 | no binding | 10.7 ± 0.09 nM | – |
| B2 | no binding | 43 ± 1.1 nM | 14 nM |
